B1: Fc DRA222 (TSC311 or TSC312) (Fc fusion)
chain: EPKSSDKTHTCPPCPAPEAAGAPSVFLFPPKPKDTLMISRTPEVTCVVVDVSHEDPEVKFNWYVDGVEVHNAKTKPREEQYNSTYRVVSVLTVLHQDWLNGKAYACAVSNKALPAPIEKTISKAKGQPREPQVYTLPPSRDELTKNQVSLTCLVKGFYPSDIAVEWESNGQPENNYKTTPPVLDSDGSFFLYSKLTVDKSRWQQGNVFSCSVMHEALHNHYTQKSLSLSPGQRHNNSSLNTGTQMAGHSPNSQVQLVESGGGVVQPGRSLRLSCKASGYTFTRSTMHWVRQAPGQGLEWIGYINPSSAYTNYNQKFKDRFTISADKSKSTAFLQMDSLRPEDTGVYFCARPQVHYDYNGFPYWGQGTPVTVSSGGGGSGGGGSGGGGSAQDIQMTQSPSSLSASVGDRVTMTCSASSSVSYMNWYQQKPGKAPKRWIYDSSKLASGVPARFSGSGSGTDYTLTISSLQPEDFATYYCQQWSRNPPTFGGGTKLQITSSS
B2: Fc H8L1 (TSC316) (Fc fusion)
chain: EPKSSDKTHTCPPCPAPEAAGAPSVFLFPPKPKDTLMISRTPEVTCVVVDVSHEDPEVKFNWYVDGVEVHNAKTKPREEQYNSTYRVVSVLTVLHQDWLNGKAYACAVSNKALPAPIEKTISKAKGQPREPQVYTLPPSRDELTKNQVSLTCLVKGFYPSDIAVEWESNGQPENNYKTTPPVLDSDGSFFLYSKLTVDKSRWQQGNVFSCSVMHEALHNHYTQKSLSLSPGQRHNNSSLNTGTQMAGHSPNSQVQLVQSGAEVKKPGASVKVSCKASGYTFTRSTMHWVRQAPGQGLEWMGYINPSSAYTNYNQKFKDRVTMTRDTSTSTVYMELSSLRSEDTAVYYCARPQVHYDYNGFPYWGQGTLVTVSSGGGGSGGGGSGGGGSGGGGSDIQMTQSPSSLSASVGDRVTMTCSASSSVSYMNWYQQKPGKAPKRWIYDSSKLASGVPARFSGSGSGTDYTLTISSLQPEDFATYYCQQWSRNPPTFGGGTKLQITSSS
B3: Fc H7L1 (TSC313) (Fc fusion)
chain: EPKSSDKTHTCPPCPAPEAAGAPSVFLFPPKPKDTLMISRTPEVTCVVVDVSHEDPEVKFNWYVDGVEVHNAKTKPREEQYNSTYRVVSVLTVLHQDWLNGKAYACAVSNKALPAPIEKTISKAKGQPREPQVYTLPPSRDELTKNQVSLTCLVKGFYPSDIAVEWESNGQPENNYKTTPPVLDSDGSFFLYSKLTVDKSRWQQGNVFSCSVMHEALHNHYTQKSLSLSPGQRHNNSSLNTGTQMAGHSPNSQVQLVQSGAEVKKPGASVKVSCKASGYTFTRSTMHWVRQAPGQGLEWMGYINPSSAYTNYNQKFKDRVTMTRDTSISTAYMELSRLRSDDTAVYYCARPQVHYDYNGFPYWGQGTLVTVSSGGGGSGGGGSGGGGSGGGGSDIQMTQSPSSLSASVGDRVTMTCSASSSVSYMNWYQQKPGKAPKRWIYDSSKLASGVPARFSGSGSGTDYTLTISSLQPEDFATYYCQQWSRNPPTFGGGTKLQITSSS

Molecular target: human CD3 (human, UniProt P07766 23-207; P09693 23-182; P04234 22-171; P20963 22-164)
Sequence (P07766 23-207, chain 1 of 4): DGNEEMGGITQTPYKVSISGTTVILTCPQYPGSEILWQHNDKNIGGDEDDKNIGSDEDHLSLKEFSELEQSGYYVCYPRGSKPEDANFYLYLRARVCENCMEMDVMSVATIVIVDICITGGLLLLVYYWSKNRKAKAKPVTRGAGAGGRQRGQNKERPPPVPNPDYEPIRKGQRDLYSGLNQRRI
Sequence (P09693 23-182, chain 2 of 4): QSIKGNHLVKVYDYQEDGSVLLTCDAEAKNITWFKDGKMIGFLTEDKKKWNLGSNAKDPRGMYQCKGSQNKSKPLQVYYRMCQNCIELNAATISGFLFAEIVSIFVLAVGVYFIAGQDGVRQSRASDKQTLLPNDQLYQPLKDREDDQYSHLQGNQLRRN
Sequence (P04234 22-171, chain 3 of 4): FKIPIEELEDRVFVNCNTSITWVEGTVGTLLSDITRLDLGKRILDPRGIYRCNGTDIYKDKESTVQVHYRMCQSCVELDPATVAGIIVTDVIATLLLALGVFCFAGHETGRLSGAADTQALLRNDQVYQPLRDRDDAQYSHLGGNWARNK
Sequence (P20963 22-164, chain 4 of 4): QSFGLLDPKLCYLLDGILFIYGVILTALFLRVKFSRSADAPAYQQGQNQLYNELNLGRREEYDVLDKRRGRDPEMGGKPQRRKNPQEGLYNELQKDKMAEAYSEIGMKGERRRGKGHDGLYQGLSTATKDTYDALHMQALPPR
Assay: flow cytometry, Jurkat T cells

Binder | EC50 [nM]
B1 | 1.7
B2 | 1.3
B3 | 0.87

From patent US20180273622A1 (published 2018)
